Results reported in the DeepSol protein solubility set.

Experiment: soluble on expression in E. coli; label from the status in PepcDB or PDB records

Sequence | soluble on expression in E. coli
NAFVSIQTSTIPKTAFVARDFVPLQNRGNQWVAPVRASEDDPALAKSYLDFAIIEVPLFLHNQMDKQIYDHFMRPAINTYERLGNSVGIFAYQPMASFKRDSYFALGYPQVESNIAALNLNQTEVKPTRPEDVAQVTFKEPWSVDHHREIPTLTTNQLTTIKTKHFSGSKLSWPFDHTKSF | not soluble
NDSLVLFSTDLKLLWANRSAEHLYGDYVEQLVGQEFTSLKGARGIPSDAIAVRASLGSGEPCYERVSAADGRIWDMKYFPVRGED | not soluble
NFLDFEKPIVELETKIQALRDVSRHSTSASVDLDKELEQLEKKSLELKKKIFSDLGAWQVAQLARHPQRPYTLDYLKHIFTEFDELAGDRAYADDKAIVGGIARLEGRSVMVIGHQKGRETREKVKRNFGMPKPEGYRKALRLMEMAERFNM | not soluble
NIDEHSLFVNVGERTNVTGSKAFARLILNGGYAEGLVIARSQVENGAQIIDINMDEAMLDSQKAMVTFLNLLAAEPDISRLPIMLDSSKWSVIEAGLKCVQGKAVINSISLKEGEAEFLHHARLARRYGAAVIVMAFDETGQADTLQRKVEICTRCYHTLIEQADFPPEDIIFDPNIFAIATGIEEHSNYAVDFIEATHVIRQTLPYAKVSGGVSNVSFSFRGNEPIREAIHTAFLYHAVKAGMTMGIVNAGQLGVYSDIPPDLLEHVEDVLLNRRPDATERLVEFAEHFKGQKKEQIE | not soluble
NKDWRINGYVNFSRNENKITELPANMVQENYSPKNGAYAARAEVGRPIGSFYGYRYKGVYQNTDATYARDAEGNVMNDAKGRPIVMKNLTATCQPGDAMYEDINHDGVINQYDIVYLGNANPTLTGGAGLTVKYKQFSINTFFHGRFGQSVVNTARMNNESMHGNANQSTAVLRRWKNEGDITDIPRALYGEGFNYLGSDRFVEDTSFLRLKQLTLNYAFPKSICNKLGITSLTCFVTGYNLFTWSSYTGQDPEVNLPSRPTDLATDGATTPVSRRYTFGFNLSF | not soluble
NKSYRSTEQITNFAKALLPDGDQIQAFTRKGDLPKVMIRYGEDAALSSLRSEVEHQLKATNTVAVLTKDLAESKQVYQYLKRYTVTTLMADSDRTMPQGVIVMPIYLAKGLEFDAVVAYDVSATNYPDADSVGILYTIASRAMHHLTLLSIGDVSPLIAQLDPTLFTIEHQVRV | not soluble
NNAKEALELCDKRDWDLAELSYRYELQFHTKEEICAYCLEIWEVMQEVYYNGTHPNEDYLPGKLHLKRRAKGLKERVAMTADPMGIIDFISLYAIAIAEENASGAKVVTAPTNGACAVIPAVMLYLKNHTIGFSDEKVIEFLLTAMLIGSFYKKNASISGAEAGCQAEIGSASSMAAAAMATVLGANAFKACNAAEMAMEHHLGLTCDPVAGLVQIPCIERNAFGAIKAISAARMAMTRKSTPMVSLDEVIETMYETGKDMNYKYKETSLGGLATN | not soluble
NPQTSVSNTGKEADATKNQTSKADQVSAPYEGTGKTSKSLYGGQTELEKNIQTLQPSSIIGTDERTRISSTTSFPYRATVQLSIKYPNTSSTYGCTGFLVNPNTVVTAGHCVYSQDHGWASTITAAPGRNGSSYPYGTYSGTMFYSVKGWTESKDTNYDYGAIKLNGSPGNTVGWYGYRTTNSSSPVGLSSSVTGFPCDKTFGTMWSDTKPIRSAETYKLTYTTDTYGCQSGSPVYRNYSDTGQTAIAIHTNGGSSYNLGTRVTNDVFNNIQYWANQ | not soluble
NPYDVVVIGGGPGGYVASIKAAQLGMKTACVEKRGALGGTCLNVGCIPSKALLHATHLYHDAHANFARYGLMGGEGVTMDSAKMQQQKERAVKGLTGGVEYLFKKNKVTYYKGEGSFETAHSIRVNGLDGKQEMLETKKTIIATGSEPTELPFLPFDEKVVLSSTGALALPRVPKTMVVIGGGVIGLELGSVWARLGAEVTVVEFAPRCAPTLDEDVTNALVGALAKNEKMKFMTSTKVVGGTNNGDSVSLEVEGKNGKRETVTCEALLVSVGRRPFTGGLGLDKINVAKNERGFVKIGDHFETSIPDVYAIGDVVDKGPMLAHKAEDEGVACAEILAGKPGHVNYGVIPAVIYTMPEVASVGKSEDELKKEGVAYKVGKFPFNANSRAKAVSTEDGFVKVLVDKATDRILGVHIVCTTAGELIGEACLAMEYGASSEDVGRTCHAHPTMSEALKEACMALFAKTINF | soluble
NSKKETVTVGVLQFVSHPALDEIYKGVEEGLKENGYDKGKNLEIIFQNGQADQSKLAIMSQQLVQKKADVLIGIATPAAQALANTTQEIPIILGAITDPVSAGLVKDNQKPGGNITGVSDQSPLSAQMDLLKELIPAAKKIGILYASSEENSRYQVAEAQKAAEAKGLTVKTYAVPSSNEIAQTVQVMTKETDVIYIPTDNTIANAMQTVVGEANRTKTPIIPSVDTMVEQGGLATVGINQHALGVQAGKMAAEVLSGKSQPATTPIYTFNTGDTIINEKQAQKLGITIPAELAKKSKLIN | not soluble
NSRVSDLDLELLFQDRAARLGKSISRLIVVASLIDKPTNLGGLCRTCEVFGASVLVVGSLQCISDKQFQHLSVSAEQWLPLVEVKPPQLIDYLQQKKTEGYTIIGVEQTAKSLDLTQYCFPEKSLLLLGNEREGIPANLIQQLDVCVEIPQQGIIRSLNVHVSGALLIWEYTRQQLLSHGDTKP | soluble
NTDIRNIPVGVVDQSGSTAGRIITQSVKVTQVVDIKETYATAQEAEQAIQDGIVRAVLILPSDLTQRMMQGRELGQWIVDGSDTMISSAILSLQTMPLTDFDFEIRPAPSKTFEVALYYNPSRRSAVN | not soluble
NTGIVSSFFTYTGPAHGTQWDEIDIEFLGKDTTKVQFNYYTNGVGGHEKVISLGFDASKGFHTYAFDWQPGYIKWYVDGVLKHTATANIPSTPGKIMMNLWNGTGVDDWLGSYNGANPLYAEYDWVKYTSNQTGGSFFEPFNSYNSGTWEKADGYSNGGVFNCTWRANNVNFTNDGKLKLGLTSSAYNKFDCAEYRSTNIYGYGLYEVSMKPAK | soluble
NTKGIDEIKNLETDFNGRIGVYALDTGSGKSFSYRANERFPLCSSFKGFLAAAVLKGSQDNRLNLNQIVNYNTRSLEFHSPITTKYKDNGMSLGDMAAAALQYSDNGATNIILERYIGGPEGMTKFMRSIGDEDFRLDRWELDLNTAIPGDERDTSTPAAVAKSLKTLALGNILSEHEKETYQTWLKGNTTGAARIRASVPSDWVVGDKTGSCGAYGTANDYAVVWPKNRAPLIISVYTTKNEKEAKHEDKVIAEASRIAIDNLK | soluble
NVLPSELPAGVDWRSRGCVTPVKDQRDCGSCWAFSTTGALEGAHCAKTGKLVSLSEQELMDCSRAEGNQSCSGGEMNDAFQYVLDSGGICSEDAYPYLARDEECRAQSCEKVVKILGFKDVPRRSEAAMKAALAKSPVSIAIEADQMPFQFYHEGVFDASCGTDLDHGVLLVGYGTDKESKKDFWIMKNSWGTGWGRDGYMYMAMHKGEEGQCGLLLDASFPVM | soluble
PAKLGYWKIRGLQQPVRLLLEYLGEKYEEQIYERDDGEKWFSKKFELGLDLPNLPYYIDDKCKLTQSLAILRYIADKHGMIGTTSEERARVSMIEGAAVDLRQGISRISYQPKFEQLKEGYLKDLPTTMKMWSDFLGKNPYLRGTSVSHVDFMVYEALDAIRYLEPHCLDHFPNLQQFMSRIEALPSIKAYMESNRFIKWPLNGWHAQFGGGDAPP | soluble
PEFMVTTEPALADLQEQLYNGNEKSQLAAMSTLSTAGTEGYHLLQEFLKDSATFSPPPAPWIRGQAYRLLFHSPEASVQAFLQQHYPQGVIPLRSDRGVDYQELAKLFVAEKFEAADRLTTQKLCELAGPLAQKRRWLYFTEVEQLPIPDLQTIDQLWLAFSLGRFGYSVQRQLWLGCGQNWDRLWEKIGWRQGKRWPRYPNEFIWDLSAPRGHLPLTNQLRGVQVLNALLNHPAWTA | soluble
PEKPAKTQKTSLDEALQWRDSLDKLLQNNYGLASFKSFLKSEFSEENLEFWIACEDYKKIKSPAKMAEKAKQIYEEFIQTEAPKEVNIDHFTKDITMKNLVEPSLSSFDMAQKRIHALMEKDSLPRFVRSEFYQELI | soluble
PFKESQARGLLQDNMANSYNGGDFEDGLLNLSKEVFPTDKYLYQDGQFLDKKTINAYLNPKYTKREIDKMSEKDKKDKKANENLGLNPSHEGETNPEKIAEKSPAYLSNILEQDFYGGGDTKGKNIKGMTIGLAMNSVYYYKKEKDGPTFSKKLDDSEVKKQGKQMASEILSRLRENDDLKDIPIHFAIYKQSSEDSITPGEFITQATAEKSQTKLNEWHNINEKSALLPSSTAADYDENLNNNFKQFNDNLQSYFSNFTQAVGKVKFVDKKPQRLVVDLPIDYYGQAETIGITQYVTEQANKYFDKIDNYEIRIKDGNQPRALISKTKDDKEPQV | not soluble
PFSWMKFVVISRTDLEENGREILIHECAHIRKHHSWDLLIADICIFFQWFNPGAWLLKQELQNIHEYEADEAVINEGINARDYQLLLI | not soluble
PGGPEEQWQRAIHERGEAVCPTCNVVTRKTLVGLKKHMEVCQKLQDALKCQHCRKQFKSKAGLNYHTMAEHSAKPSDAEASEGGE | soluble
PHDDSYWDRVLTHGKNCIKYTPNNAASLHNAIRLLNESPWMKVTMGLEALNVAQLYSAERCYMPIAQYLCSEHAPTSHHGAKARNNVKGYDHV | not soluble
PIFTLNTNIKATDVPSDFLSSTSALVGNILSKPGSYVAVHINTDQQLSFGGSTNPAAFGTLMSIGGIEPSRNRDHSAKLFDHLNTKLGIPKNRMYIHFVNLNGDDVGWNGTTF | soluble
PKVSVIMTSYNKSDYVAKSISSILSQTFSDFELFIMDDNSNEETLNVIRPFLNDNRVRFYQSDISGVKERTEKTRYAALINQAIEMAEGEYITYATDDNIYMPDRLLKMVRELDTHPEKAVIYSASKTYHLNENRDIVKETVRPAAQVTWNAPCAIDHCSVMHRYSVLEKVKEKFGSYWDESPAFYRIGDARFFWRVNHFYPFYPLDEELDLNYITDQSIHFQLFELEKNEFVRNLPPQRNCRELRESLKKLGMG | soluble
PLENQELTPLFGQPDWFLGILPSQAGNLKVLDTARWVMPERYRDDYRDGLKYVISVQGYEWGLAVHQVSRSIRLDPAEVKWRSQRSQRPWLAGTVIEH | not soluble
PMILGYWNVRGLTHPIRLLLEYTDSSYEEKRYAMGDAPDYDRSQWLNEKFKLGLDFPNLPYLIDGSRKITQSNAIMRYLARKHHLCGETEEERIRVDVLENQAMDTRLQLAMVCYSPDFERKKPEYLEGLPEKMKLYSEFLGKQPWFAGNKITYVDFLVYDVLDQHRIFEPKCLDAFPNLKDFVARFEGLKKISDYMKSGRFLSKPIFAKMAFWNPK | soluble
PNFSHWGPPRIVEIFREPNVSLGISIVGGQTVIKRLKNGEELKGIFIKQVLEDSPAGKTNALKTGDKILEVSGVDLQNASHSEAVEAIKNAGNPVVFIVQSLSSTPRVIP | soluble
PNSPINKLVLNDIGPQIPIHGLRRIAKYAGKAPDFKSLEEAKQHFKASYADFGITNEKQWDIFTKNSVEQRGPNLYVTKMDPAIKKSKSILQIISEFFRHPHKALEGIFYDINLWSIWKQIKCPVIVIHGVNSDILTSEIITQMKKTHALTEVYEVENAGHAPALLDLTVHQRIEDWLATH | not soluble
PPFTGDERASIQRACEAGVEKIIVPATEAAHFPRVLALAARFPSLYAALGLHPIVIERHADDDSDKLQQALAQQQNVVAVGEIGLDLYRDDPQFARQERFLDAQLQLAKRYDLPVILHSRRTHDKLAMHLKRQDLPRTGVVHGFAGSLQQAERFVRLGYKIGVGGTITYPRASKTRDVMARLPLDALLLETDAPDMPLKGFQGQPNRPEQAARVFDALCELRPE | not soluble
